The results in this text go back to a protein production outcome set (Wang et al. 2014).

The nature of this data set: label from the status in PepcDB records.

“MKAYPYIFLLLISSSLAASQEDKLYEAARSALNDNKYSEALIHVKNILKISPEHLASNILIAEILLADGSASAAEASLTKAVSLGANKKQLRLLFAESYIMQGQYNKTLDYLPEQTNDDKLAAKIYVLRGDAHLGLRQLKLSQNDYNTALAFDAKNIDAKLGLAQIAVNYFQFHQAEKLVDEVLSGYIPPIKAWNLKASIQQSLGNNELALNAINQALLIDKNNIQSLIFASTINIELQQFELAEKYADTVLEQVPNEPKAEFIKAMVQVRKNENAGFESAIETVAQVLDHLSEDVLRSNPSYYYLASIILFHQQKHEAARQYIDDYLLIDENNINALTLAATIELVEKKPMQAKTLLSRANFLDPDNPKILSMLGMTYLELRQYEKAHFYLAKVKELKPNLGIADTQLAQSYLATGKPEKAIKHLLTASAAEYDPTVVGLLLVESYIKSGKMNKGISVAKNLAENMPDNANIQHHLGYIYQISGEIEKAKHQFEQALIIEPNHAKSIISLANLDYQKGNADIAIDRLKAALIISANDIDLITALAKFYNRTNNSAASVILLEEPFKLDNQNEELLKNLIVSYVGDKQLMLAIETLNTYLLNQRKTVELYLMLASLQIMNSDVNSAVSAYKSAIKQDGDKGTIYLLIAHAYQRFSKVPEAITAYKKSMAWDGDNDKAIIGLAQLYNAENDTDSAIKLIKSFEVNHQLSAQLVEVLANSYLRINQYKLAEMYYKKRIKLASNDSSVVGLNLIYRATKRTSKAVDLLTTSLNDRPNSLFLNTALAELYIDQSQWLNADKIYQTLVQLYPKQPAILNNASYVALNLSDYPRAEALVKRSLALVDNQPDSLDTLGWVYYHTKEFNKALPLFRKALAINNSNPAVKYHLALTLKALNRDKEAIKLMVDVVNSDYSQKADADVLLKQWLK”: the protein production result was “failed”.
On to “MKDAKSFNDLYKASIYTMLGSIYAPSGGVIAAPTTSLPEVEGGKRNWDYRFAWVRDSSIIAEALLEAGSIVEARRIINFLLSLINFSSKPFYYPLYTIEGTIPPPERELRWLSGYKNSKPVRIGNGASSQIQLDIEGFFISALYKYVKMTNDQVFLKDVFSKVKYIGDWISENWSLKDSGIWEDRGSPQHYTHSKIMMWIALDKIGKLANLIGYADIWAKEREKLRNWIFTNCVKNNYFIRYCGNTDDVDSSLLSAPLYGFIEVSDSTFINTLTKIENDLKTDVFVKRYKTDFMGEAKHPFLLTTVWLARVYMRLGKIDSAIEILNKINKVSRELHLVGEHVDVEKGEFTGNFPQIFVHAQLVIAIKELNDTLEHHHHHH”, for which the protein production result is on record as “failed”.
In the case of “MKDFFKDQFFKALEKNTIFSRADVQGNLIFVSDKLCQISGYSKKELIGKKHSIFKHPDVEECYIEELLKKLSYKKPYQVIFKNIDKLGKTFYLETLLIPILDKNNELIEIVAFSHDVSNSFKLNEELALNHAKLRELSINLENTVKNHQQEFIQLGKKFEKKMQIALEKNEKDIKIAYEEILKSSLEQMISDIAHQWRQPLNELGIAMFQMKQNLKDEKGFAEIYSQSKDMIKNMSETIDVFRTLFNKGVEQCVFIKETLNKALEIAFETIEKNHVNINIVSKSDYEVLAYENGLIRVFLNLILNSIEAFKNKKRKIITINFSKFGKNYLKITIKDNAGGIDKENLDKIFQPYFTTKHPSQGIGVGLYISRQIIESFQGKIKVKNGKDGACFEIFLKLKERVE”, the protein production entry is given as “failed”.
Take “MKDISLKDKITQGINDLFYIWKREFRTTFRDQGVLIFFVLVPLVYPLIYSFIYTNEVVREVPAVVVDDSRSSLSREYLRKVDATPDIQIVAYCADMEEAKQMLKDRLAYGIIYIPKDFSSDIAQGKQTQVSIYCDMSGLLYYKSMLLANTAVSLDMNENIKIARSGNTTDRQDEITAYPIEYEDVAMFNPTNGFAAFLIPAVLILIIQQTLLLGIGLSAGTARENNRFKDLVPINRHYNGTLRIVLGKGLSYFMVYALVSVYVLCAVPRMFSLNQIGQPGTLALFILPYLMACIFFAMTASIAIRNRETCMLIFVFTSVPLLFISGISWPGAAIPPFWKYFSYIFPSTFGINGFVRINNMGATLSEIPFEYKALWIQTGFYFLTTCWVYRWQIIKSRKHVIDKYKEMKNKGKEFFS”: the protein production entry is on record as “failed”.
The result for “MKDLFSTDSQRYQQARPTYPPSLLQSLLQYIPERELAWDCGAGSGQLTHMLASYFDQVVGTDISQTQLSHAEYYDNISYQLQPAENTTFPDHCFDLITVAQAIHWFDFEAFYAEVRRTIKPSGILAVVGYGLIHVDDLEINAKVQHLYHQTLNGFWDAERHYVDELYQTIPFPFDEIEMPAFQIEAQWTLQQLLQYLNTWSAVQHYILEKNLDPVQQLLSKGRDLQDQVSIQFPVLLRVGRCS” reads “failed”; that for “MKDLIIVGAGGFGREVAWLVEDINNNNREWNLLGFIDENEQNHGNELNGYKVLGGFDYLNNKKNIYYVCAIGNAKVRKEIVEKKCSKYNIKPANLIHPSVIMSKKYNKMGEGCIICASNIITVNVTLGDHIIVNLDCTIGHDVVINDYVTIYPSVNVSGNCNIGECVELGTGTQVIQGNNIGDRTIVGAGSVVIRNIEGDKVAVGVPTKVIK”, “failed”.
Take “MKDLSSIVAKFNTQGTITEIKPLGAGLINDTYKVNTQEADAPDYVLQRINHAIFQNVEMLQSNIAAVTGHIRKKLTEAGEADIDRKVLSFLATEEGKTYWFDGESYWRVMVFIPRAKTYETVNPEYSNYAGEAFGNFQAMLADIPETLGETIPDFHNMEFRLKQLRDAVAANAAGRVAEVQYYLDEIEKRADEMCKAERLFREGKLPKRVCHCDTKVNNMMFDEDGKVLCVIDLDTVMPSFIFSDYGDFLRTGANTGDEDDKDLNRVNFNMEIFKAFTKGYLKGAKSFLTPIEIENLPYAAALFPYMQCVRFLADYINGDTYYKIKYPEHNLVRTKAQFKLLQSVEEHTPEMVAFINECLVNGLEHHHHHH”: the protein production result is “failed”.
Consider “MKDLTQGSIPKHLISMALPMMIGMLIQTLYFIVDLYFVGKLGSAALAGLSLAGNAMFLIFALTQILNVSTAALISHAVGAKDQQDANLTFNQSMMLSTVVGIIVCIIGYFGAQDYLNLISQDSETVMMGLTYLHWFIPCMALQFIMVSISSALRGTGIVKPTMVIQTLSILLNIILSPILITGWGSGYAMGIAGAGFASSLSVIFAVVLLCYYFITTDKYVSVDFSLWHINVPRIKKLLAIGLPAGGEFFLMFVYMGAIYWLIKPFGAEAQAAFGLGSRVMQALFLPAMAIAFAAPAIAGQNFGAQNYQRVRDTFRWTAIMTCSLMAIILLICLSQAEWMLTHFSDDREVILISVAFLQMICWNFVPAGLVFTCSGMFQALGNTMPALLSTATRLITFILPALWLSKQSDFQIEQLWYVSVATVCLQSSVSFYFLKREFKKRLPNDNLSNECSDELNKNKLIT”, for which the protein production entry was “failed”.
Regarding “MKDMKMQSSPETMMTRIPTPDPHSTGVREDAMDSVCKPWKLYENPYYCSSQSQQHQHQRKAFIWDLNFIKVFMESELGKAQDEIKELKAELDYERKARRRAELMIKKLAKDVEEERMAREAEEMQNKRLFKELSSEKSEMVRMKRDLEEERQMHRLAEVLREERVQMKLMDARLFLEEKLSELEEANRQGERERNRMMKPKILERACSSPARRRCENPQIKRGINPFPRVMRAIRSKSEKWGSKLECQKVQLKILLRQKTTPRCTPLLSSPPP”, the protein production result is “failed”.
As to “MKDMQTKIVMIGILLSTGIMLRAQDNGGCEDCPAFNAGGKVEVRGVKERIIGDLSQPVAVRVRTLIQQMTLAEKVAQLVSESDSIPRLNLPAYNYWNECLHGVARAGEVTVFPQAINLASTWDTVLVKRVASAISTEARLKYLEIGKGLTYWSPTINMARDPRWGRNEETYGEDPHLTSRLGVAFVKGLQGDHPTYLKTVATIKHFVANNEENNRFSSSSQIPTKQLYEYYFPAYEACVKEANAQSVMTAYNAFNGVPPSGSHWLLDDVLRKEWGFDGFVVSDCGAIGVMNWQHRVVNSLEEAAALGVNSGCDLECGTTYKEKLVQAVEQGLISEAAIDRALTRVLTARFKLGEFDPMELVPYNHYDKKLLAGKKFAELAYEAAVKSVVLLKNDALLPLNKEKIKSVAVVGPFADYNYLGGYSGQPPYSVSLLKGVKELIGKKGKVTYLNGMGTSADSIAQVVKGADIVLVALGSDEKMARENHDMPSIYLPEEQEKFLKKIYQVNPRIVLVFHTGNPLTSEWADTHILAIMQAWYPGQEAGRALANLLFGNENPSGKLPMTIYKTEEQLPDILDFDMWKGRTYRYMKGEPLYGFGHGLSYTSFEFDNIQGNDTLQPDAILQCSVELSNSGQLAGEEVVQVYVSRENTPVYTYPLKKLVAFKKVKLASGEKKKVDFTIAPRELSVWEDGKWRMLSGKYTLFIGSGQPGLAKGITKGFEVKIR”, the protein production entry was “failed”.
